# Results: the supplement of paper PMC9112550, “Optimization of the antimicrobial peptide Bac7 by deep mutational scanning” (BMC Biology, 2022)
# System: Escherichia coli TOP10
# Assay: shrunken log2 fold change of peptide-encoding DNA abundance (4.5 h post-induction vs induction); higher = less antimicrobial activity (less host growth inhibition)
# Conditions: time post-induction: 4.5 h; library: site-saturation at positions 5, 18, 19, 20
# 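Also: peptides expressed intracellularly from a pBAD plasmid library in pooled LB shake-flask culture, induced with 0.3% L-arabinose, DNA abundance read by NGS, three biological replicates, DESeq2 with apeglm shrinkage.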
row,Sequence,shrunken log2 fold change
1,RRIRDRPPRLPRPRPRPIQDPRP,-0.0113
2,RRIRVRPPRLPRPRPRPRWKPRP,0.328
3,RRIRVRPPRLPRPRPRPPEFPRP,0.265
4,RRIRCRPPRLPRPRPRPFMHPRP,-1.01
5,RRIRGRPPRLPRPRPRPNYNPRP,-0.262
6,RRIRERPPRLPRPRPRPGLSPRP,-0.113
7,RRIRKRPPRLPRPRPRPCSRPRP,0.015
8,RRIRDRPPRLPRPRPRPRPCPRP,0.429
9,RRIRFRPPRLPRPRPRPIRFPRP,-0.233
10,RRIRYRPPRLPRPRPRPPGHPRP,-0.337
11,RRIRYRPPRLPRPRPRPEPDPRP,0.0689
12,RRIRLRPPRLPRPRPRPMHEPRP,-0.0688
13,RRIRKRPPRLPRPRPRPGVMPRP,0.895
14,RRIRMRPPRLPRPRPRPLVMPRP,0.0504
15,RRIRMRPPRLPRPRPRPKTLPRP,0.687
16,RRIRVRPPRLPRPRPRPITFPRP,-0.0498
17,RRIRPRPPRLPRPRPRPDDLPRP,-0.296
18,RRIRWRPPRLPRPRPRPCTIPRP,-0.138
19,RRIRWRPPRLPRPRPRPNCQPRP,-0.14
20,RRIRCRPPRLPRPRPRPTYKPRP,-0.267
21,RRIRQRPPRLPRPRPRPFVNPRP,-0.545
22,RRIRHRPPRLPRPRPRPCVQPRP,-0.131
23,RRIRGRPPRLPRPRPRPIAQPRP,0.838
24,RRIRCRPPRLPRPRPRPHAVPRP,-0.559
25,RRIRWRPPRLPRPRPRPVNMPRP,-0.101

row,Sequence,shrunken log2 fold change
1,RRIRCRPPRLPRPRPRPSGIPRP,-0.154
2,RRIRQRPPRLPRPRPRPRTRPRP,0.225
3,RRIRTRPPRLPRPRPRPDLKPRP,0.156
4,RRIRHRPPRLPRPRPRPTNLPRP,-0.288
5,RRIRSRPPRLPRPRPRPQDDPRP,-0.351
6,RRIRFRPPRLPRPRPRPKAWPRP,0.0254
7,RRIRSRPPRLPRPRPRPSICPRP,-0.0672
8,RRIRKRPPRLPRPRPRPFADPRP,0.00902
9,RRIRQRPPRLPRPRPRPDGLPRP,-0.0465
10,RRIRLRPPRLPRPRPRPNMLPRP,-0.58
11,RRIRARPPRLPRPRPRPWNQPRP,-0.247
12,RRIRCRPPRLPRPRPRPRHKPRP,-0.265
13,RRIRFRPPRLPRPRPRPTKNPRP,-0.0239
14,RRIRYRPPRLPRPRPRPFHVPRP,-0.184
15,RRIRCRPPRLPRPRPRPRNVPRP,-0.156
16,RRIRLRPPRLPRPRPRPQKIPRP,0.0459
17,RRIRMRPPRLPRPRPRPWFNPRP,-0.243
18,RRIRMRPPRLPRPRPRPEKQPRP,2.16
19,RRIRWRPPRLPRPRPRPQSQPRP,0.00151
20,RRIRQRPPRLPRPRPRPLLLPRP,-0.363
21,RRIRDRPPRLPRPRPRPGFVPRP,0.0977
22,RRIRYRPPRLPRPRPRPDEWPRP,0.0549
23,RRIRVRPPRLPRPRPRPHWHPRP,-0.0411
24,RRIRMRPPRLPRPRPRPEPDPRP,1.12
25,RRIRMRPPRLPRPRPRPVKDPRP,0.0812

row,Sequence,shrunken log2 fold change
1,RRIRERPPRLPRPRPRPKTWPRP,-0.104
2,RRIRGRPPRLPRPRPRPNIPPRP,-0.251
3,RRIRGRPPRLPRPRPRPKLLPRP,0.84
4,RRIRPRPPRLPRPRPRPKYIPRP,-0.433
5,RRIRGRPPRLPRPRPRPQWNPRP,0.0405
6,RRIRSRPPRLPRPRPRPQQQPRP,-0.0954
7,RRIRQRPPRLPRPRPRPHVTPRP,0.0406
8,RRIRLRPPRLPRPRPRPNAFPRP,0.00952
9,RRIRERPPRLPRPRPRPPYVPRP,-0.524
10,RRIRHRPPRLPRPRPRPIKFPRP,-0.0972
11,RRIRHRPPRLPRPRPRPQYYPRP,-1.76
12,RRIRIRPPRLPRPRPRPFNVPRP,-0.217
13,RRIRCRPPRLPRPRPRPQMDPRP,-0.248
14,RRIRKRPPRLPRPRPRPQPVPRP,0.095
15,RRIRSRPPRLPRPRPRPEQTPRP,0.709
16,RRIRPRPPRLPRPRPRPIHHPRP,-0.454
17,RRIRARPPRLPRPRPRPKSEPRP,1.22
18,RRIRKRPPRLPRPRPRPGNPPRP,0.85
19,RRIRTRPPRLPRPRPRPKFIPRP,-0.175
20,RRIRRRPPRLPRPRPRPWHQPRP,-0.111
21,RRIRRRPPRLPRPRPRPREKPRP,0.0627
22,RRIRNRPPRLPRPRPRPRKDPRP,0.00266
23,RRIRFRPPRLPRPRPRPCLQPRP,0.0975
24,RRIRCRPPRLPRPRPRPCQHPRP,-0.161
25,RRIRMRPPRLPRPRPRPGKMPRP,0.137

row,Sequence,shrunken log2 fold change
1,RRIRDRPPRLPRPRPRPSPYPRP,-1.07
2,RRIRWRPPRLPRPRPRPKTVPRP,0.227
3,RRIRERPPRLPRPRPRPRHYPRP,-0.462
4,RRIRARPPRLPRPRPRPAHQPRP,0.568
5,RRIRIRPPRLPRPRPRPHNFPRP,-0.0684
6,RRIRSRPPRLPRPRPRPEQKPRP,0.0179
7,RRIRYRPPRLPRPRPRPWCAPRP,-0.255
8,RRIRLRPPRLPRPRPRPLRRPRP,0.249
9,RRIRFRPPRLPRPRPRPWDSPRP,-0.21
10,RRIRFRPPRLPRPRPRPAFLPRP,-0.17
11,RRIRARPPRLPRPRPRPWISPRP,-0.333
12,RRIRWRPPRLPRPRPRPTPHPRP,0.427
13,RRIRNRPPRLPRPRPRPGAVPRP,0.248
14,RRIRARPPRLPRPRPRPHQPPRP,-0.115
15,RRIRMRPPRLPRPRPRPEYAPRP,0.0325
16,RRIRPRPPRLPRPRPRPMETPRP,-0.00904
17,RRIRNRPPRLPRPRPRPFQAPRP,-0.0439
18,RRIRWRPPRLPRPRPRPQIWPRP,0.0603
19,RRIRFRPPRLPRPRPRPSSWPRP,-0.105
20,RRIRGRPPRLPRPRPRPAEEPRP,1.15
21,RRIRTRPPRLPRPRPRPMGLPRP,0.12
22,RRIRIRPPRLPRPRPRPFFRPRP,-0.636
23,RRIRDRPPRLPRPRPRPKFDPRP,-0.0895
24,RRIRERPPRLPRPRPRPYHLPRP,-0.0102
25,RRIRKRPPRLPRPRPRPQVDPRP,0.288

row,Sequence,shrunken log2 fold change
1,RRIRIRPPRLPRPRPRPLYDPRP,-1.02
2,RRIRTRPPRLPRPRPRPIASPRP,-0.0997
3,RRIRKRPPRLPRPRPRPNSHPRP,-0.272
4,RRIRLRPPRLPRPRPRPHLCPRP,-0.355
5,RRIRNRPPRLPRPRPRPGMKPRP,-0.272
6,RRIRIRPPRLPRPRPRPCMLPRP,-0.61
7,RRIRTRPPRLPRPRPRPTFFPRP,-0.11
8,RRIRMRPPRLPRPRPRPWLMPRP,0.0599
9,RRIRIRPPRLPRPRPRPIAYPRP,-0.32
10,RRIRFRPPRLPRPRPRPFGIPRP,-0.197
11,RRIRRRPPRLPRPRPRPAIAPRP,0.468
12,RRIRGRPPRLPRPRPRPCLDPRP,-0.0991
13,RRIRPRPPRLPRPRPRPESVPRP,0.0986
14,RRIRDRPPRLPRPRPRPVLYPRP,-0.166
15,RRIRPRPPRLPRPRPRPDHIPRP,-0.0312
16,RRIRQRPPRLPRPRPRPNKLPRP,-0.0898
17,RRIRERPPRLPRPRPRPRGSPRP,0.147
18,RRIRFRPPRLPRPRPRPYWTPRP,-0.651
19,RRIRPRPPRLPRPRPRPEIIPRP,-0.0816
20,RRIRMRPPRLPRPRPRPTPRPRP,1.46
21,RRIRNRPPRLPRPRPRPEFEPRP,0.114
22,RRIRHRPPRLPRPRPRPFSQPRP,-0.302
23,RRIRNRPPRLPRPRPRPKCPPRP,-0.124
24,RRIRMRPPRLPRPRPRPMHTPRP,3.3
25,RRIRDRPPRLPRPRPRPFMDPRP,-0.112

row,Sequence,shrunken log2 fold change
1,RRIRYRPPRLPRPRPRPEVVPRP,-0.219
2,RRIRFRPPRLPRPRPRPTNGPRP,-0.137
3,RRIRRRPPRLPRPRPRPTRAPRP,0.738
4,RRIRNRPPRLPRPRPRPNYEPRP,-0.21
5,RRIRWRPPRLPRPRPRPPYQPRP,-0.172
6,RRIRGRPPRLPRPRPRPWKFPRP,-0.211
7,RRIRWRPPRLPRPRPRPRFHPRP,-0.293
8,RRIRKRPPRLPRPRPRPNCMPRP,-0.0663
9,RRIRDRPPRLPRPRPRPNHPPRP,-0.222
10,RRIRDRPPRLPRPRPRPRTSPRP,0.353
11,RRIRWRPPRLPRPRPRPRGMPRP,0.313
12,RRIRNRPPRLPRPRPRPSAAPRP,0.338
13,RRIRERPPRLPRPRPRPILRPRP,0.109
14,RRIRPRPPRLPRPRPRPPYQPRP,0.249
15,RRIRVRPPRLPRPRPRPDLPPRP,-0.377
16,RRIRHRPPRLPRPRPRPHQMPRP,-0.0152
17,RRIRPRPPRLPRPRPRPSGQPRP,-0.0898
18,RRIRARPPRLPRPRPRPYIKPRP,-1.17
19,RRIRGRPPRLPRPRPRPWFDPRP,-0.0883
20,RRIRVRPPRLPRPRPRPCKIPRP,-0.376
21,RRIRSRPPRLPRPRPRPTPWPRP,0.349
22,RRIRNRPPRLPRPRPRPYFDPRP,-0.0504
23,RRIRDRPPRLPRPRPRPAQIPRP,0.263
24,RRIRWRPPRLPRPRPRPNNWPRP,-0.0483
25,RRIRTRPPRLPRPRPRPHYPPRP,-0.782
